Numbering of substitutions follows the chain as printed. Where two headings read alike, the source gives them in different places.
What was measured:
Assay in all cases: SPR (Biacore), antibody captured on chip, FcgR extracellular domain as analyte
[1] = target: T1, FcgRIIa H (human, UniProt P12318 34-217)
T1 construct: extracellular domain; also called FcγRIIa H; FcγRIIa type H; not shown: His tag attached to the C terminus
T1 sequence (looked up): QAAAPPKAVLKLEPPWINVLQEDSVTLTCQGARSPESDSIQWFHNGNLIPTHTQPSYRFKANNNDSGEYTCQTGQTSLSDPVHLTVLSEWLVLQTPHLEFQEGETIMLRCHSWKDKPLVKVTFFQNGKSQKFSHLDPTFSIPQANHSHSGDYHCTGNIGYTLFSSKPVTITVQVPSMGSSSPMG

[2] = target: T2, FcgRIIa R (human, UniProt P12318 34-217)
T2 construct: extracellular domain; also called FcγRIIa R; FcγRIIa type R; not shown: His tag attached to the C terminus
T2 sequence (looked up): T1 sequence (looked up) with H134R

[3] = target: T3, FcgRIIb (human, UniProt P31994 43-217)
T3 construct: extracellular domain; Expressed in FreeStyle293 cells and purified; used as analyte in Biacore; also called FcγRIIb; CD32B; not shown: His tag attached to the C terminus
T3 sequence (looked up): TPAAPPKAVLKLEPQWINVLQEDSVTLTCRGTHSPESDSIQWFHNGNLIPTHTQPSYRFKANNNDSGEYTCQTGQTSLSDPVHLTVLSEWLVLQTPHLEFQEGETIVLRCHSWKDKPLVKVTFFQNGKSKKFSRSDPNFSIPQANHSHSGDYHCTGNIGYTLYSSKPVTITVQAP

[4] = target: T4, FcgRIIIa F (human, UniProt P08637 17-208)
T4 construct: extracellular domain; also called FcγRIIIa F; not shown: His tag attached to the C terminus

[5] = target: T5, FcgRIa (human, UniProt P12314 16-292)
T5 construct: extracellular domain; Expressed in FreeStyle293 cells and purified; used as analyte in Biacore; also called FcγRIa; FcγRI; not shown: His tag attached to the C terminus

[6] = target: T1, FcgRIIa H; remark: listed apart in the source
[7] = target: T2, FcgRIIa R; remark: listed apart in the source
[8] = target: T6, FcgRIIIa V (human, UniProt P08637 17-208)
T6 construct: extracellular domain; also called FcγRIIIa V; not shown: His tag attached to the C terminus

[9] = target: T3, FcgRIIb; remark: listed apart in the source
[10] = target: T4, FcgRIIIa F; remark: listed apart in the source
[11] = target: T5, FcgRIa; remark: listed apart in the source
[12] = target: T1, FcgRIIa H; remark: listed apart in the source
Method: (§1) Analysis of interaction between obj ective antibody and the FcγR was carried out using Biacore T100 (GE Healthcare), Biacore T200, Biacore A100, and Biacore 4000. HBS-EP+ (GE Healthcare) was used as the running buffer, and the measurement temperature was set to 25° C. Chips produced by immobilizing the antigen peptide by the amine coupling method to a Series S sensor Chip CM5 (GE Healthcare), chips produced by allowing preliminarily biotinylated antigen peptides to interact with and immobilize onto a Series S Sensor Chip SA (certified) (GE Healthcare), chips produced by immobilizing Protein L (ACTIGEN, BioVision) to Series S Sencor Chip CM5 (GE Healthcare), or chips produced by immobilizing Protein A/G (Thermo Scientific) to Series S Sencor Chip CM5 (GE Healthcare) were used. Antibodies of interest were captured onto these chips, and allowed to interact to each FcγR diluted with running buffer. To regenerate and repeatedly use the chip, the antibodies captured onto the chip were washed off by reacting 10 mM glycine-HCl, pH 1.5.

[13] = target: T2, FcgRIIa R; remark: listed apart in the source
Method: as §1

[14] = target: T6, FcgRIIIa V; remark: listed apart in the source
Method: as §1

[15] = target: T3, FcgRIIb; remark: listed apart in the source
Method: as §1

[16] = target: T4, FcgRIIIa F; remark: listed apart in the source
Method: as §1

[17] = target: T5, FcgRIa; remark: listed apart in the source
Method: as §1

T4 sequence (P08637 17-208): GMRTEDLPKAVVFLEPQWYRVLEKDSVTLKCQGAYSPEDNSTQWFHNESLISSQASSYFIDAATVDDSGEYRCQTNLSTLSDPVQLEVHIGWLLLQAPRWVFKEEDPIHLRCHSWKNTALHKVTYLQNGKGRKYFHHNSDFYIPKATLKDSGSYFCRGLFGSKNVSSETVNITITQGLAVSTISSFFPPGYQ
T5 sequence (P12314 16-292): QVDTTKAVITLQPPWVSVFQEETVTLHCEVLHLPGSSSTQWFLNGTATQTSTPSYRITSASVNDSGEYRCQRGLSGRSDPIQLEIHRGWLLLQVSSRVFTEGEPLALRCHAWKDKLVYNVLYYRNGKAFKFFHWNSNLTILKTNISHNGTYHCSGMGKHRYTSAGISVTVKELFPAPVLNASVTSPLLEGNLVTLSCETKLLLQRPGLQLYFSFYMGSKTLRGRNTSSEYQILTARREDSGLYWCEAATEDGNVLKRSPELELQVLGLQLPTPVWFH
T6 sequence (P08637 17-208 F176V limits assumed): as the sequence (P08637 17-208) above, with F160V counted along it

B1: H240-afucosyl_G1d/L73-k0 (antibody, human IgG1, kappa)
heavy: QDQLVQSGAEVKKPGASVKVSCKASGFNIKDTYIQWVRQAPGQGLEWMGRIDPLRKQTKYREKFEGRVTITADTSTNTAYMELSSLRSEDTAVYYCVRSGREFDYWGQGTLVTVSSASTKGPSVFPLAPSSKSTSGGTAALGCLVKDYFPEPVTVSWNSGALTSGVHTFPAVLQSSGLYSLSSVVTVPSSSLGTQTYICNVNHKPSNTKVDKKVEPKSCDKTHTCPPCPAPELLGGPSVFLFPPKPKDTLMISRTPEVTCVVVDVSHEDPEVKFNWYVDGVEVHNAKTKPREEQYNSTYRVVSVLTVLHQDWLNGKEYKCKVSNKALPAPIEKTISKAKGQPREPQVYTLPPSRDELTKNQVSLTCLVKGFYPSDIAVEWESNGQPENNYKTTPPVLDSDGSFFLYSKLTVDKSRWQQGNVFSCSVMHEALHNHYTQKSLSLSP
light: DIQMTQSPSSLSASVGDRVTITCRASQDIHKYIAWYQQKPGQAPRLLIQYTSTLQPGVPSRFSGSGSGTDYTFTISSLQPEDIATYYCLQYEQLRTFGGGTKVEIKRTVAAPSVFIFPPSDEQLKSGTASVVCLLNNFYPREAKVQWKVDNALQSGNSQESVTEQDSKDSTYSLSSTLTLSKADYEKHKVYACEVTHQGLSSPVTKSFNRGEC
modifications: fucose removed from the sugar chain (afucosylated); amino acid sequence same as H240-G1d
notes: Anti-EREG IgG1 obtained by afucosylating H240-G1d/L73-k0; also called afucosylated antibody
Kd [1]: 780 nM | Kd [2]: 490 nM | Kd [3]: 2600 nM | Kd [4]: 79 nM | Kd [5]: 0.43 nM | Kd [6]: 780 nM | Kd [7]: 490 nM | Kd [8]: 6.9 nM | Kd [9]: 2600 nM | Kd [10]: 79 nM | Kd [11]: 0.43 nM | Kd [12]: 780 nM | Kd [13]: 490 nM | Kd [14]: 6.9 nM | Kd [15]: 2600 nM | Kd [16]: 79 nM | Kd [17]: 0.43 nM

— patent publication US20180155451A1 (published 2018)
